Consider two molecules from paper PMC5007650, “Crystal structure of the two-subunit tRNA m^1A58 methyltransferase TRM6-TRM61 from Saccharomyces cerevisiae” (Scientific Reports, 2016).

The target of series [1] is T1, TRM6 from Saccharomyces cerevisiae (S. cerevisiae, UniProt P41814 1-478).
T1 construct: TRM6, non-catalytic subunit of the tRNA m1A58 methyltransferase, S. cerevisiae, full length; A selenomethionine derivative was used for phasing only; also called TRM6 subunit; source: bacteria, expression plasmid pETDuet-TRM6-TRM61, purified as the TRM6-TRM61 complex (Ni2+-NTA, Superdex 200)
T1 sequence (looked up): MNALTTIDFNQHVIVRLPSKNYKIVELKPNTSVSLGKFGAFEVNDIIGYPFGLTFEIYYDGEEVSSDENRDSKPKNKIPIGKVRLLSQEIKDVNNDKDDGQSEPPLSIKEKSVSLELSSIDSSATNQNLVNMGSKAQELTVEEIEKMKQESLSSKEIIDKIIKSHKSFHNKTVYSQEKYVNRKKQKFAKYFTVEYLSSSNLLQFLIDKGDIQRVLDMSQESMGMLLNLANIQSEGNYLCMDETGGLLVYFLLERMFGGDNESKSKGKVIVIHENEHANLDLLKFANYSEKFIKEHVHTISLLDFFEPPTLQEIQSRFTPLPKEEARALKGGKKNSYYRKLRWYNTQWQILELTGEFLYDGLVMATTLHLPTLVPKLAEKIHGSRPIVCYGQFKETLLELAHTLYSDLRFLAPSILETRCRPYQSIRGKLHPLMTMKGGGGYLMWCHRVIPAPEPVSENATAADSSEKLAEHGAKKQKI
Description: crystal structure; sitting-drop vapour diffusion at 293 K, 0.1 M HEPES pH 7.5, 2% MPD, 10% PEG 6000; apo TRM6-TRM61 and TRM6-TRM61 with SAM, each at 2.2 Å; heterotetramer from symmetry-related molecules. The settings on record: both partners purified.

Series [2] concerns the molecule itself. The series is described as above.

B1: TRM61 from Saccharomyces cerevisiae (enzyme, S. cerevisiae, UniProt P46959 1-383, looked up)
chain: MSTNCFSGYKDLIKEGDLTLIWVSRDNIKPVRMHSEEVFNTRYGSFPHKDIIGKPYGSQIAIRTKGSNKFAFVHVLQPTPELWTLSLPHRTQIVYTPDSSYIMQRLNCSPHSRVIEAGTGSGSFSHAFARSVGHLFSFEFHHIRYEQALEEFKEHGLIDDNVTITHRDVCQGGFLIKKGDTTSYEFGNNETAASLNANVVFLDLPAPWDAIPHLDSVISVDEKVGLCCFSPCIEQVDKTLDVLEKYGWTDVEMVEIQGRQYESRRQMVRSLNDALERLRDIKRHKLQGVERRKRMFNNTIDSNDEKVGKRNEDGVPLTEKAKFNPFGKGSRIKEGDSNYKWKEVTKMEAEIKSHTSYLTFAFKVVNRSRDDEKVNEILRSTEK
notes: TRM61, catalytic subunit of the tRNA m1A58 methyltransferase, S. cerevisiae, full length; also called TRM61 subunit; catalytic subunit; source: bacteria, expression plasmid pETDuet-TRM6-TRM61, purified as the TRM6-TRM61 complex (Ni2+-NTA, Superdex 200)
Take B1: the binding result in series [1] is given as “binds”.

B2: TRM6-TRM61 heterodimer from Saccharomyces cerevisiae (complex, S. cerevisiae)
chain 1: T1 sequence (looked up)
chain 2: B1 chain
notes: TRM6, S. cerevisiae, full length; as the chain of m1; TRM61, S. cerevisiae, full length; as the chain of m2; 1:1 heterodimer of TRM6 and TRM61 (the asymmetric unit of the crystal); two of them form the 2:2 heterotetramer; also called TRM6-TRM61 holoenzyme; TRM6-TRM61 complex; source: bacteria, expression plasmid pETDuet-TRM6-TRM61, purified (Ni2+-NTA, Superdex 200)
Take B2: the binding result in series [2] was “binds”.
